Here are results for four molecules from patent US20050054833A1 (published 2005).

The target of test [1] is T1, human CD23 (human, UniProt P06734 1-321).
T1 chain: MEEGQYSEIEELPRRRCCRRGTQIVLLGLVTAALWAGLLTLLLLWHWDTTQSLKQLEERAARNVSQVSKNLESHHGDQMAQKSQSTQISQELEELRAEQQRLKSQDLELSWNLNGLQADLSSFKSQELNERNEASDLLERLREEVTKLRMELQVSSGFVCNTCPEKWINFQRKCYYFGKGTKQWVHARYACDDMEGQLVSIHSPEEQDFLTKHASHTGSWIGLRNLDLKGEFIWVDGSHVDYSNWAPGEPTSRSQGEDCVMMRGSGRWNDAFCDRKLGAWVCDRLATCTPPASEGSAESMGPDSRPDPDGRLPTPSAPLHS
The experiment in a line: apparent Kd.

The target in test [2] is T1, human CD23. As to the kind of experiment: apparent Kd; replicate 1.
The target of test [3] is T1, human CD23. The experiment in a line: apparent Kd; replicate 3.
In test [4] the target is T1, human CD23. As to the kind of experiment: apparent Kd; replicate 2.
For test [5], the target named is T1, human CD23. The experiment in a line: apparent Kd; replicate 4.
Another test concerns the target p5E8G1N-. The experiment in a line: apparent Kd.
The target of the next test is p5E8G1. The experiment in a line: apparent Kd.

Changes are numbered by the printed parent chain.

B1: PRIMATIZED antibody p5E8G4PN- (antibody, V domains shown)
VH: EVQLVESGGGLAKPGGSLRLSCAASGFRFTFNNYYMDWVRQAPGQGLEWVSRISSSGDPTWYADSVKGRFTISRENAKNTLFLQMNSLRAEDTAVYYCASLTTGSDSWGQGVLVTVSS
VL: DIQMTQSPSSLSASVGDRVTITCRASQDIRYYLNWYQQKPGKAPKLLIYVASSLQSGVPSRFSGSGSGTEFTLTVSSLQPEDFATYYCLQVYSTPRTFGQGTKVEIK
For B1, in the test with human CD23 [1], the Kd worked out at 0.3 nM.

B2: primate anti-human CD23 monoclonal antibody 5E8 (antibody, V domains shown)
VH: B1 VH with K78N
VL: B1 VL
modifications: N-linked oligosaccharide at the asparagine of the heavy chain variable region glycosylation site (Kabat 75)
As to B2, the Kd with human CD23 [2] worked out at 0.5 nM; with human CD23 [3], 1.8 nM; with human CD23 [4], 1.5 nM; with human CD23 [5], 4.4 nM.

B3: PRIMATIZED antibody p5E8G4P (antibody, V domains shown)
VH: B1 VH with K78N
VL: B1 VL
modifications: N-linked oligosaccharide at the asparagine of the heavy chain variable region glycosylation site (Kabat 75)
With B3, the values for the Kd in the test with human CD23 [2] and with human CD23 [4] were 0.3 nM and 1 nM, respectively.

B4: CD23 (receptor)
chain: T1 chain
As to B4, the Kd with p5E8G1N- and in the test with p5E8G1 was 0.7 nM each time.
